In the Immune Epitope Database (IEDB) one finds Kd data, which are given here for 26 sequences.

Some targets named below: HLA-A*03:01; HLA-A*11:01; HLA-A*31:01; HLA-A*33:01; HLA-A*68:01.
Common to all, as to assay: IEDB peptide-MHC binding, purified MHC/competitive/radioactivity; filed as Kd, often an IC50 or EC50 that approximates it; ≥ and ≤ were set here for values at or beyond the usual limits of such assays
Setting [1] is: source organism: Vaccinia virus WR.
Setting [2] is: source organism: SARS coronavirus Tor2.
Setting [3] is: source organism: Mammarenavirus machupoense.
Where [4] appears, read: source organism: Dengue virus 1 Brazil/97-11/1997.
[5] abbreviates: source organism: Dengue virus 3 Martinique/1243/1999.
[6] abbreviates: source organism: Dengue virus 4 Philippines/H241/1956.
Setting [7] is: source organism: Mammarenavirus juninense.
[8] abbreviates: source organism: Mammarenavirus brazilense.

pKd: −log10 of the molar value.

As to IILARNEEGR, the pKd in the test with HLA-A*03:01 (setting [1]) was 5.02; with HLA-A*11:01 (setting [1]), not above 4.61; with HLA-A*31:01 (setting [1]) it was 7.15; with HLA-A*33:01 (setting [1]), 6.46; with HLA-A*68:01 (setting [1]) it was 5.94.

For LVKSYSLIR, the pKd with HLA-A*03:01 (setting [1]) was 4.81; in the test with HLA-A*11:01 (setting [1]), 5.83; with HLA-A*31:01 (setting [1]), 7.74; in the test with HLA-A*33:01 (setting [1]) it was 5.77; in the test with HLA-A*68:01 (setting [1]) it was 6.09.

Take RVPRNLTLSK: the negative logarithm of the Kd (pKd) with HLA-A*03:01 (setting [2]) is 7.91; in the test with HLA-A*11:01 (setting [2]), 8.08; in the test with HLA-A*31:01 (setting [2]), 6.12; with HLA-A*33:01 (setting [2]) it was not above 4.15; in the test with HLA-A*68:01 (setting [2]), 5.68.

On to TAVAKCNQNH, for which the pKd is not above 4.15 with HLA-A*03:01 (setting [3]); not above 4.16 with HLA-A*11:01 (setting [3]); not above 4.15 with HLA-A*31:01 (setting [3]); not above 4.16 with HLA-A*33:01 (setting [3]); not above 4.15 in the test with HLA-A*68:01 (setting [3]).

Take SLRETACLGK: the pKd with HLA-A*03:01 (setting [4]) was 8.09.

Take PLHILASNKK: the negative-log Kd (pKd) with HLA-A*03:01 (setting [1]) was 5.83; in the test with HLA-A*11:01 (setting [1]), 5.47; in the test with HLA-A*31:01 (setting [1]), 5.11; with HLA-A*33:01 (setting [1]), not above 4.15; with HLA-A*68:01 (setting [1]), not above 4.66.

For the sequence NMVSDTIMKR, the negative logarithm of the Kd (pKd) with HLA-A*03:01 (setting [1]) is 5.38; with HLA-A*11:01 (setting [1]), 6.92; in the test with HLA-A*31:01 (setting [1]), 6.51; with HLA-A*33:01 (setting [1]) it was 6.08; with HLA-A*68:01 (setting [1]), 7.04.

On to SSSVDVDIY, for which the pKd with HLA-A*03:01 (setting [1]) is not above 4.19; with HLA-A*11:01 (setting [1]), not above 4.36; with HLA-A*31:01 (setting [1]) it was 5.56; in the test with HLA-A*33:01 (setting [1]), not above 4.14; in the test with HLA-A*68:01 (setting [1]), 5.53.

As for GVLARWGTFK, the pKd with HLA-A*03:01 (setting [5]) is 8.28; with HLA-A*11:01 (setting [5]), 7.13.

For AAQRRGRIGR, in the test with HLA-A*31:01 (setting [6]), the pKd was 8.67.

As for YLINPNILY, the pKd is 5.82 with HLA-A*03:01 (setting [1]); 6.42 with HLA-A*11:01 (setting [1]); not above 4.11 with HLA-A*31:01 (setting [1]); not above 4.35 with HLA-A*33:01 (setting [1]); 5.49 with HLA-A*68:01 (setting [1]).

For VIRLLIWAY, the pKd is 4.89 in the test with HLA-A*03:01 (setting [1]); 5.71 with HLA-A*11:01 (setting [1]); 5.91 with HLA-A*31:01 (setting [1]); 4.91 with HLA-A*33:01 (setting [1]); 5.23 with HLA-A*68:01 (setting [1]).

As to FFLMVLLIPE, the pKd in the test with HLA-A*33:01 (setting [4]) was 6.68.

Consider DTEDIVSDSK, for which the pKd in the test with HLA-A*03:01 (setting [1]) is 5.12; with HLA-A*11:01 (setting [1]), 5.78; in the test with HLA-A*31:01 (setting [1]) it was 4.80; in the test with HLA-A*33:01 (setting [1]), 5.50; with HLA-A*68:01 (setting [1]) it was 6.70.

As to RVPSHLAHR, the negative logarithm of the Kd (pKd) with HLA-A*31:01 (setting [5]) is 9.07.

CIFAFIDFSK: the negative-log Kd (pKd) is 7.74 with HLA-A*03:01 (setting [1]); 8.04 with HLA-A*11:01 (setting [1]); 6.87 in the test with HLA-A*31:01 (setting [1]); 7.19 in the test with HLA-A*33:01 (setting [1]); 7.34 with HLA-A*68:01 (setting [1]).

In the case of IFVSLVKKNK, the pKd is 6.44 in the test with HLA-A*03:01 (setting [1]); 5.73 with HLA-A*11:01 (setting [1]); 7.16 with HLA-A*31:01 (setting [1]); 7.26 with HLA-A*33:01 (setting [1]); 7.25 in the test with HLA-A*68:01 (setting [1]).

Consider NSSAVVDNK, for which the pKd in the test with HLA-A*03:01 (setting [1]) was 5.08; in the test with HLA-A*11:01 (setting [1]), 6.71; with HLA-A*31:01 (setting [1]), not above 4.51; with HLA-A*33:01 (setting [1]), not above 4.11; with HLA-A*68:01 (setting [1]), 7.36.

With MLFTSTNDK, the negative-log Kd (pKd) in the test with HLA-A*03:01 (setting [1]) was 8.26; in the test with HLA-A*11:01 (setting [1]), 7.70; with HLA-A*31:01 (setting [1]), 4.74; with HLA-A*33:01 (setting [1]), not above 4.11; with HLA-A*68:01 (setting [1]), 7.58.

Consider SMQGAVDINR, for which the pKd was 5.64 with HLA-A*03:01 (setting [2]); 5.94 with HLA-A*11:01 (setting [2]); 6.73 in the test with HLA-A*31:01 (setting [2]); 6.33 in the test with HLA-A*33:01 (setting [2]); 6.85 in the test with HLA-A*68:01 (setting [2]).

With GFKNGSRHSH, the pKd was 4.84 in the test with HLA-A*03:01 (setting [7]), not above 4.37 with HLA-A*11:01 (setting [7]), 6.05 with HLA-A*31:01 (setting [7]) and 5.53 in the test with HLA-A*68:01 (setting [7]).

In the case of KAGQNIRLSH, the negative-log Kd (pKd) in the test with HLA-A*03:01 (setting [8]) was 5.77; in the test with HLA-A*11:01 (setting [8]), 4.89; with HLA-A*31:01 (setting [8]) it was 5.28; in the test with HLA-A*33:01 (setting [8]), not above 4.15; with HLA-A*68:01 (setting [8]), not above 4.15.

SSTCSAVTDR: the negative logarithm of the Kd (pKd) with HLA-A*03:01 (setting [1]) is 4.94; with HLA-A*11:01 (setting [1]) it was 6.76; with HLA-A*31:01 (setting [1]), 6.91; with HLA-A*33:01 (setting [1]) it was 6.15; with HLA-A*68:01 (setting [1]) it was 7.06.

On to KATLTEGVYR, for which the pKd with HLA-A*31:01 (setting [6]) was 7.12.

IVSLCPTKK: the pKd with HLA-A*03:01 (setting [1]) was 6.44; with HLA-A*11:01 (setting [1]), 7.27; in the test with HLA-A*31:01 (setting [1]), 5.79; with HLA-A*33:01 (setting [1]), 5.11; with HLA-A*68:01 (setting [1]), 6.04.

On to VIENGILKK, for which the negative logarithm of the Kd (pKd) was 6.36 with HLA-A*03:01 (setting [1]); 7.53 with HLA-A*11:01 (setting [1]); 4.89 with HLA-A*31:01 (setting [1]); not above 4.11 with HLA-A*33:01 (setting [1]); 5.74 in the test with HLA-A*68:01 (setting [1]).

For orientation: pKd means the Kd on a negative log10 scale, so that one unit is a factor of ten.
